Results reported in the supplement of paper PMC10567573.

B1: KRT34 (parent)
chain: YQSYFKTIEELQQKILCAKAENAR
B2: PDZK1 (parent)
chain: QKEQGLSDNILSPVMNGGVQTWTQ

Variants of: B1
Assay: protein stability index of a GFP-peptide fusion (GPS, HEK-293T) (PSI 1-6); higher = more stable
Details: c terminus: a fixed tail appended
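Also: lentivirally expressed fusions sorted by FACS into six bins by GFP to DsRed ratio, PSI derived from sequencing read proportions per bin multiplied by bin number.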

Protein stability index: each site, then its substitutions
A20: Q 1.78 | M 2.57 | E 2.14 | P 1.79 | D 2.18 | Y 1.3 | T 1.87 | K 2.16 | N 1.71 | I 1.86 | H 2.06 | C 2.01 | W 1.46 | R 1.88 | L 2.34 | F 1.4 | V 1.71
R24: C 1.59 | K 1.93 | L 1.77 | Q 3.56 | W 2.32 | Y 2.6 | T 1.64 | E 1.32 | H 2.2 | S 1.74 | A 1.52 | N 2.25 | I 2.17 | P 1.57 | V 2.78 | F 1.91 | D 1.16 | G 1.16 | M 1.02
K19: W 2.29 | Y 1.35
E21: S 1.96 | P 2.14 | N 1.69 | Y 1.27 | R 2.12 | I 1.29 | T 2.05 | V 2.42 | Q 1.89 | G 1.03 | F 1.17 | M 1.26 | A 2.93 | H 2.24 | C 2.38 | L 2.17 | K 1.99 | D 1.74
A23: T 1.64 | F 2.72 | K 2.17 | Q 2.17 | M 1.88 | V 1.32 | S 2.05 | D 2.08 | P 2.38 | C 1.39 | N 1.55 | I 1.65 | Y 1.87 | L 2.01 | R 2.06 | E 2.71 | H 2.93 | G 1.96
N22: E 1.89 | G 1.36 | K 2.22 | Y 1.59 | T 2.4 | F 2.17 | S 2.46 | D 2.54 | M 1.59 | C 2.04 | P 1.89 | A 1.69 | L 2.26 | Q 2.09 | H 1.81 | R 1.43

Variants of: B2
Assay: as above
Details: c terminus: a fixed tail appended

Protein stability index: each site, then its substitutions
Q1: P 3.23 | K 2.58 | Y 2.47 | T 2.7 | R 2.02 | C 1.91 | S 2.1 | N 2.75 | V 1.96 | W 1.94 | I 2.12 | L 2.41 | E 3.26 | M 2.98 | G 2.15 | D 3.37 | A 2.61 | F 1.97
N16: Q 1.72 | E 3.41 | D 3.71 | S 2.81 | P 2.12 | Y 2.45 | K 1.49 | L 2.47 | C 2.75 | R 2.34 | H 2.81 | I 2.89 | F 2.61
I10: Q 3.34 | C 3.03 | V 2.56 | E 3.89 | K 3.02 | N 3.43 | M 2.67 | A 2.89 | H 2.96 | G 2.83 | R 2.35 | F 2.04 | Y 2.6
N9: H 2.34 | L 2.21 | F 1.86 | K 1.8 | M 2.74 | V 2.38 | I 2.88 | G 2.56 | T 2.56 | E 3.25 | D 3.45 | C 2.67 | S 2.75 | R 2.05 | Y 1.78 | Q 2.5 | A 2.67
L11: M 3.25 | K 1.64 | Q 2 | A 3.47 | F 2.13 | P 2.48 | I 1.89 | V 3.62 | H 2.75 | C 2.63 | E 3.97 | R 2.73 | Y 2.5 | W 2.33
D8: R 2.59 | N 2.68 | T 2.39 | M 1.92 | C 1.51 | W 2.4 | L 2.73 | G 3.29 | P 2.34 | F 1.1 | Y 2.15 | E 3.04 | K 2.1 | S 2.34 | I 2.05 | V 2.29
V14: R 2.64 | Y 1.94 | A 3.29 | S 2.91 | N 2.77 | H 2.46 | K 2.54 | Q 2.9 | P 2.47 | G 1.5 | C 3.74 | I 2.4 | T 2.93 | E 2.78 | M 2.65
P13: T 2.34 | Q 2.5 | N 3.05 | F 1.56 | H 1.96 | C 1.87 | V 2.41 | Y 1.9 | R 2.09 | S 2.37 | K 2.47 | A 2.06 | I 1.59
S12: D 3.84 | I 3.58 | K 2.18 | A 2.58 | M 2.22 | G 3.21 | F 2.76 | N 3.27 | T 2.36 | W 1.95 | Y 2.83 | H 1.74 | P 3.76
S7: D 2.54 | Q 2.13 | Y 2.12 | N 2.77 | A 2.51 | T 2.09 | M 2.68 | F 2 | G 3.19 | P 3.36 | E 3.43 | K 2.18 | I 2.48 | C 3.27
G17: A 3.96 | H 1.91 | I 3.36 | F 2.19 | E 3.27
M15: E 3.69 | A 1.84 | R 2.24 | S 2.21 | Y 2.44 | T 2.97 | I 2.79 | F 1.87 | D 3.02 | C 1.97 | N 2.85 | Q 2.46 | H 2.51
G5: N 2.7 | H 1.98 | C 3.57 | I 2.48 | P 3.15 | Q 2.7 | Y 1.66 | A 2.4 | W 2.29 | D 2.85 | R 2.7 | T 2.92 | S 1.87 | M 1.99 | E 2.82 | F 2.44
K2: I 2.42 | M 2.51 | F 2.26 | E 3.35 | G 2.76 | P 2.67 | Y 3.24 | D 3.23 | Q 3.15 | H 2.81 | N 2.88 | C 3.57 | R 3.05 | S 3.13 | T 3.26
E3: V 2.05 | A 3.02 | K 4.26 | C 2.05 | W 2.17 | H 2.24 | S 2.02 | D 3.51 | Y 1.68 | T 2.88 | R 1.52 | G 1.82 | F 1.67 | L 2.12 | I 2.67 | M 2.61 | P 2.93 | Q 2.18
L6: N 3.29 | F 1.87 | P 3.03 | G 2.61 | Y 2.49 | A 2.96 | R 3.71 | T 3.27 | W 2.56 | D 2.65 | C 2.98 | E 3.65 | K 4.46 | Q 3.92 | H 3.12 | M 2.12
Q4: Y 1.98 | H 2.61 | M 1.82 | N 2.29 | V 2.52 | E 2.85 | D 3.67 | L 2.14 | R 3.73 | P 2.64 | F 2.21 | W 1.85 | K 2.08 | T 2.78 | C 2.08
